# According to PMC6918743, “Mammalian TRP ion channels are insensitive to membrane stretch” (Journal of Cell Science, 2019):
# B1: mouse TRPC6, full-length (WT) protein (natural protein, UniProt Q61143 1-930, looked up)
# chain: MSQSPRFVTRRGGSLKAAPGAGTRRNESQDYLLMDELGDDGYPQLPLPPYGYYPSFRGNENRLTHRRQTILREKGRRLANRGPAYMFNDHSTSLSIEEERFLDAAEYGNIPVVRKMLEECHSLNVNCVDYMGQNALQLAVANEHLEITELLLKKENLSRVGDALLLAISKGYVRIVEAILNHPAFAEGKRLATSPSQSELQQDDFYAYDEDGTRFSHDVTPIILAAHCQEYEIVHTLLRKGARIERPHDYFCKCTECSQKQKHDSFSHSRSRINAYKGLASPAYLSLSSEDPVMTALELSNELAVLANIEKEFKNDYRKLSMQCKDFVVGLLDLCRNTEEVEAILNGDAETRQPGDFGRPNLSRLKLAIKYEVKKFVAHPNCQQQLLSIWYENLSGLRQQTMAVKFLVVLAVAIGLPFLALIYWCAPCSKMGKILRGPFMKFVAHAASFTIFLGLLVMNAADRFEGTKLLPNETSTDNARQLFRMKTSCFSWMEMLIISWVIGMIWAECKEIWTQGPKEYLFELWNMLDFGMLAIFAASFIARFMAFWHASKAQSIIDANDTLKDLTKVTLGDNVKYYNLARIKWDPTDPQIISEGLYAIAVVLSFSRIAYILPANESFGPLQISLGRTVKDIFKFMVIFIMVFVAFMIGMFNLYSYYIGAKQNEAFTTVEESFKTLFWAIFGLSEVKSVVINYNHKFIENIGYVLYGVYNVTMVIVLLNMLIAMINSSFQEIEDDADVEWKFARAKLWFSYFEEGRTLPVPFNLVPSPKSLLYLLLKFKKWMCELIQGQKQGFQEDAEMNKRNEEKKFGISGSHEDLSKFSLDKNQLAHNKQSSTRSSEDYHLNSFSNPPRQYQKIMKRLIKRYVLQAQIDKESDEVNEGELKEIKQDISSLRYELLEEKSQNTEDLAELIRKLGERLSLEPKLEESRR
# notes: TRPC6, Mus musculus, full-length (WT) protein; Tags removed with ProTEV Plus protease; solubilised in DDM; also called mTRPC6; WT TRPC6; source: Sf9 (baculovirus, Bac-to-Bac), purified (amylose resin, Superose 6); not shown: His8, N-terminal, cleaved; MBP, N-terminal, cleaved
# B2: Δ94 mTRPC6 (94 aa N-terminally truncated mouse TRPC6) (domain or fragment, UniProt Q61143 95-930, looked up)
# chain: SIEEERFLDAAEYGNIPVVRKMLEECHSLNVNCVDYMGQNALQLAVANEHLEITELLLKKENLSRVGDALLLAISKGYVRIVEAILNHPAFAEGKRLATSPSQSELQQDDFYAYDEDGTRFSHDVTPIILAAHCQEYEIVHTLLRKGARIERPHDYFCKCTECSQKQKHDSFSHSRSRINAYKGLASPAYLSLSSEDPVMTALELSNELAVLANIEKEFKNDYRKLSMQCKDFVVGLLDLCRNTEEVEAILNGDAETRQPGDFGRPNLSRLKLAIKYEVKKFVAHPNCQQQLLSIWYENLSGLRQQTMAVKFLVVLAVAIGLPFLALIYWCAPCSKMGKILRGPFMKFVAHAASFTIFLGLLVMNAADRFEGTKLLPNETSTDNARQLFRMKTSCFSWMEMLIISWVIGMIWAECKEIWTQGPKEYLFELWNMLDFGMLAIFAASFIARFMAFWHASKAQSIIDANDTLKDLTKVTLGDNVKYYNLARIKWDPTDPQIISEGLYAIAVVLSFSRIAYILPANESFGPLQISLGRTVKDIFKFMVIFIMVFVAFMIGMFNLYSYYIGAKQNEAFTTVEESFKTLFWAIFGLSEVKSVVINYNHKFIENIGYVLYGVYNVTMVIVLLNMLIAMINSSFQEIEDDADVEWKFARAKLWFSYFEEGRTLPVPFNLVPSPKSLLYLLLKFKKWMCELIQGQKQGFQEDAEMNKRNEEKKFGISGSHEDLSKFSLDKNQLAHNKQSSTRSSEDYHLNSFSNPPRQYQKIMKRLIKRYVLQAQIDKESDEVNEGELKEIKQDISSLRYELLEEKSQNTEDLAELIRKLGERLSLEPKLEESRR
# notes: TRPC6, Mus musculus, N-terminal truncation of 94 aa (Δ94); The limit 95 follows from the printed '94 aa truncated' N-terminal truncation; Tags removed with ProTEV Plus protease; solubilised in DDM; also called Δ94 TRPC6; N-terminal truncation (Δ94) of TRPC6; source: Sf9 (baculovirus, Bac-to-Bac), purified (amylose resin, Superose 6); not shown: His8, N-terminal, cleaved; MBP, N-terminal, cleaved
# Biological target: the molecule itself
# Assay: SEC; Superose 6 10/300 GL column; 150 mM NaCl, 20 mM HEPES, 2 mM TCEP (pH 7.4); DDM-mTRPC6 protein complex; peak assigned to the tetramer
row,Protein,stoichiometry N
1,B1,4
2,B2,4
